B1: TPR t1 (parent)
chain: GACCAAUCUGCCCUCAGAGCUCGAGAACAUCUUCGGAUGCAGAGGAGGCAGGCUUCGGUGGCGCGAUAGCGCCAACGUCCUCAACCUCCAAUGCAUCCCACCACAUGAUGAUGCCUGAAGAGCCUUGGUUUUUUG

Variants of: B1
Experiment: polymerase ribozyme fitness, log enrichment relative to wild type (log ratio); higher = more active; in vitro selection for triplet polymerase activity
Method in brief: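 A single round of triplicate in vitro selection, including frozen incubation at −7 °C, was applied to PCR-built, transcribed mutant libraries of each subunit of a heterodimeric triplet polymerase ribozyme. Illumina sequencing of input and output libraries retained genotypes with ≥10 input reads and ≥1 read per output. Fitness is the base-2 logarithm of genotype enrichment divided by wild-type enrichment, from inverse-variance-weighted replicate averages.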

Going from C40U G60C G135U to A41G C49G G58U C79A, the “polymerase ribozyme fitness (log ratio)” value falls from -1.79 to -6.14.

Going from C40G G44C C73U U125G to C40G G63U C80G C123U, the “polymerase ribozyme fitness (log ratio)” value falls from -2.93 to -6.43.

A41U G42C A95C and G39U C86G C104A are within 0.2 log units of each other in “polymerase ribozyme fitness (log ratio)” value: -4.1 for the first, -4.01 for the second.

Going from C40U U78G C85G to C40U G45U G127C, the “polymerase ribozyme fitness (log ratio)” value falls from -2.08 to -3.96.

Compared with C40G G71U C79A, C40G G60U A68G is lower in “polymerase ribozyme fitness (log ratio)” value: -2.32 for the first, -4.86 for the second.

Going from A41U U96G to A41U C53G C62G A84U U112A, the “polymerase ribozyme fitness (log ratio)” value falls from -2.51 to -4.47.

First: C40U G113U
Second: A41C G48C U78G A111G
The “polymerase ribozyme fitness (log ratio)” value of the first is lower: -2.53 for the first, -1.93 for the second.

First: C40G G51A A68G
Second: A41U G57U C86G C123U
The “polymerase ribozyme fitness (log ratio)” value of the first is lower: -6.59 for the first, -4.13 for the second.

Compared with C40G C56U, G39U C72G C82G is lower in “polymerase ribozyme fitness (log ratio)” value: -1.79 for the first, -2.35 for the second.

Going from C40A C64U C80U to A41U C53G C62G G113C, the “polymerase ribozyme fitness (log ratio)” value falls from -2.24 to -6.56.

First: C40A A50G G71U C85U
Second: A41U A84U C88A
The “polymerase ribozyme fitness (log ratio)” value of the first is higher: -2.76 for the first, -3.83 for the second.

First: A41G G63A A75G C85A U133A
Second: G42A A50U C73A C123U
The “polymerase ribozyme fitness (log ratio)” value of the first is lower: -3.04 for the first, -2.52 for the second.

Compared with A41C G51U A121G, A41G G113A C124A is higher in “polymerase ribozyme fitness (log ratio)” value: -3.12 for the first, -0.366 for the second.

First: A41C C70A
Second: A41U G48U C76A
The “polymerase ribozyme fitness (log ratio)” value of the first is lower: -3 for the first, -1.72 for the second.

Compared with C40G C56A U106C, C40U C72A is higher in “polymerase ribozyme fitness (log ratio)” value: -1.47 for the first, -0.504 for the second.

Going from C40U C72U to C40U A95U G117C A121C, the “polymerase ribozyme fitness (log ratio)” value falls from -1.69 to -5.49.

Compared with A41U C89U C123A, A41G A46U C123U is lower in “polymerase ribozyme fitness (log ratio)” value: -1.59 for the first, -2.51 for the second.

First: C40G A46U C56A U92A C114U
Second: G39U G48U
The “polymerase ribozyme fitness (log ratio)” value of the first is lower: -6.09 for the first, -1.59 for the second.

First: C40G C114A
Second: C40U C56G C72A C76A
The “polymerase ribozyme fitness (log ratio)” value of the first is higher: -2.35 for the first, -2.93 for the second.

A41U U55G A91U C101G and A41U G69C are within 0.2 log units of each other in “polymerase ribozyme fitness (log ratio)” value: -4.09 for the first, -4.05 for the second.

Compared with G39U G45C U87A C114U, C40A U78G C88G is higher in “polymerase ribozyme fitness (log ratio)” value: -6.43 for the first, -4.1 for the second.

First: C40A C85A
Second: C40G A43C A111C A119G
The “polymerase ribozyme fitness (log ratio)” value of the first is higher: -1.95 for the first, -4.45 for the second.

Compared with C40U G71U C115U U125G U133C, C40G C101U is lower in “polymerase ribozyme fitness (log ratio)” value: -0.893 for the first, -1.22 for the second.

Compared with A41U G60U U78A A95G U126A, A41C G63U G77C A100U is higher in “polymerase ribozyme fitness (log ratio)” value: -4.53 for the first, -4.24 for the second.

First: C40G G61A C72U U112C
Second: A41G A68G
The “polymerase ribozyme fitness (log ratio)” value of the first is higher: 1.6 for the first, -3.96 for the second.

Going from A41U C115U G127A to A41U G71C G117U, the “polymerase ribozyme fitness (log ratio)” value falls from -3.9 to -5.03.

Compared with C40A C56U C72G, G39U C62A C70U is higher in “polymerase ribozyme fitness (log ratio)” value: -3.26 for the first, -2.07 for the second.

First: A41C G69U U92C
Second: C40U A41C G48U C56U G58C
The “polymerase ribozyme fitness (log ratio)” value of the first is higher: -0.226 for the first, -1.43 for the second.

First: A41U C56A C72U U92G
Second: A41C C70G U78C
The “polymerase ribozyme fitness (log ratio)” value of the first is higher: -1.3 for the first, -5.64 for the second.

First: C40A C72G U78C A121G U132A
Second: A41G A83U
The “polymerase ribozyme fitness (log ratio)” value of the first is higher: 0.388 for the first, -0.499 for the second.

Compared with A41C G63C, A41G C56A is higher in “polymerase ribozyme fitness (log ratio)” value: -2.4 for the first, -1.81 for the second.

First: G42A A95C
Second: A41U G52A C62U G117U
The “polymerase ribozyme fitness (log ratio)” value of the first is higher: -1.94 for the first, -5.18 for the second.

Going from C40U A74C G120A U131C to A41U C70U A84U U116C C124U U130A, the “polymerase ribozyme fitness (log ratio)” value falls from 0.155 to -5.57.

First: A41U C123G
Second: A41C A46G
The “polymerase ribozyme fitness (log ratio)” value of the first is higher: 0.0535 for the first, -1.13 for the second.

First: G39U C115G
Second: C40A C79G G93C G110A U133A
The “polymerase ribozyme fitness (log ratio)” value of the first is higher: -2.58 for the first, -5.44 for the second.

First: A41U C124G U129A
Second: G42A A91C C123U U131A
The “polymerase ribozyme fitness (log ratio)” value of the first is higher: -0.389 for the first, -1.71 for the second.

First: A41C G61U G93C
Second: G39U G61C
The “polymerase ribozyme fitness (log ratio)” value of the first is higher: -1.3 for the first, -1.66 for the second.

Compared with C40U A41C C56A C114A, C40G A90C U106C U116G A119G U125G is lower in “polymerase ribozyme fitness (log ratio)” value: -2.89 for the first, -3.17 for the second.

First: A41G G48A
Second: C40A A43U G44C G71U C82A
The “polymerase ribozyme fitness (log ratio)” value of the first is higher: -1.31 for the first, -4.65 for the second.

Going from G39U C49U C56U to A41C G107A, the “polymerase ribozyme fitness (log ratio)” value falls from -1.53 to -5.61.

G39U G63A and C40G C62A are within 0.2 log units of each other in “polymerase ribozyme fitness (log ratio)” value: -1.75 for the first, -1.9 for the second.

With C40U A41C C76U U112A G122A the “polymerase ribozyme fitness (log ratio)” value was -3.19.

Source: the RNAGym collection of RNA variant scans (doi:10.1073/pnas.2313332121)
